# Experimental data from the nanobody polyreactivity screen of Harvey et al. (2022).
# Assay: yeast display, Sf9 membrane polyspecificity reagent, FACS + sequencing; frameworks hold sequencing errors
# Outline: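 Sorting gates, low and high (top ~1%), were placed on anti-HA fluorescence to track expression and on streptavidin fluorescence to track reagent binding. A clone's polyreactivity label is taken from the gate it came out of. The reagent was 10% biotinylated, detergent-solubilized Sf9 membrane, applied for 1 hour at 4 °C to galactose-induced yeast display cells.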
row,Sequence,polyreactivity (PSR sort gate)
1,QVQLVESGGGLVQAGGSLRLTCAASVSIFSVYARGWYRQAPGKERELVADINIGGASTYYADSVKGRFTISRDNAKNTVFLQMNSVIPEDTAVYSCAKEYYEGYFPTFDYDYWGQGTQVNVSS,low polyreactivity
2,QVQLVESGGGLVQAGGSLRLTCAASVSTIAGNAMGWYRQAPGKERELVAVITRVGSTNYADSVKGRFTISRDNAKNTVYLQMKSLKPEDTEVYYCARYGFLLDYWRGGYYWGQGTQVTVSS,high polyreactivity
3,QVQLVESGGGLVQAGGSLRLTCDASGSTFVYYAMGWYRQAPGKERELVAAITFSGGTTFYADSVKGRFTISRDNANNTVYLQMNSLKPEDTAVYYCAADAGFADQYANYHGDDYWGQGTQVTVSS,low polyreactivity
4,QVQLVESGGGLVQAGGSLRRTCAASGSIFVGYAMGWYRQEPGKERELVASITNGDSTNYADSVKGRFTISRDNAKNTVSYQMNSLKPEDTAVYYCAADYYSVHPSGWYGYEYWGQGTQVTVSS,low polyreactivity
5,QVQLVESGGGLVQAGGSLRVSCAASGCTFVDYAMCWYRQAPGKERELVAGITSGGSTNYADSVKGRFTISRDNAKNTVYLQMNSVKPEDTAVYDCNADPGQDTPGYTRPEYDYWGQGTQVTVSS,low polyreactivity
6,QVQLVESGGGLVQAGGSLRVSCAASGFTFSHYAMGWYRQAPGKERELVAAISWGGGSTYYADSVKGRFTISRDNAQNTVYLQMNSLKPEDTAVYYCAARYVLFSNRFDYWGQGTQVTVSS,high polyreactivity
7,QVQLVESGGGLVQAGGSLRVSCAASGFTFYGYAMGWSRQAPGKEREVVAAISWSGGSTYYADSVKGRFTISRDNAKNTVYLLMNRLKAEDTAVYYCAKKWTAPGKGYPRSPGGYGYWGQGTQVTVSS,high polyreactivity
8,QVQLVESGGGLVQAGGSLRVSCAASGIIFGPYVMGWSRQAPGKERELVATISRTGDTYYADSVKGRFTISRDNAKNTVYLQMNSLKPEDTAVYYCNTQDHGYGFTMDYWGQGTQVTVSS,low polyreactivity
9,QVQLVESGGGLVQAGGSLRVSCAASGISFGHYTMGWYRQATGKERELVATITTSGGRTYYADSVKGRFTISRDNAKNTVYLQMNSLKPEDTAVYYCATLSWYPFEYWGQGTQVTVSS,high polyreactivity
10,QVQLVESGGGLVQAGGSLRVSCAASGLTFRFYAMGWYRQAPGKERELVAAISTSGGSTYYADSVKGRFTISRDNAMNTVYLQMNSLKPEDTAVYYCAARARYYHSRYDYWGQGTQVTVSS,high polyreactivity
11,QVQLVESGGGLVQAGGSLRVSCAASGLTSIHYMGWYRQAPGKERELVATITSSTGSTYYADSVKGRFTISRDNAKNTVYLQMNSLKPEDTAVDYCAAESFGADGPYQPSYDYWGQGTQVTVSS,low polyreactivity
12,QVQLVESGGGLVQAGGSLRVSCAASGNIFGEYAMGWYRQAPGKERELVAAITNSGGRTHYADSVKGRFTISRDNAKNTVYLQMNSLKPEDTAVYYCAAPTKYRSRRYYWGQGTQVTVSS,high polyreactivity
13,QVQLVESGGGLVQAGGSLRVSCAASGRIFILNTMGCYRQAPGKETELVAGISYSGSTYYADSVKGRFTISRDNAKNTVYLQMNSLKPEATAVYYCAAEYDAAWYNEGYYYWGQGTQVTVSS,low polyreactivity
14,QVQLVESGGGLVQAGGSLRVSCAASGRIIGQYAMGWSRQAPGKEWELVASISRRGGSTYYAASVKGRFTISRDNAKKTVYLQMYSLKPEDTAVYYCAKERTYGHYDYWGQGTQVTVSS,high polyreactivity
15,QVQLVESGGGLVQAGGSLRVSCAASGRTFGIYAMGWYRQAPGKEREFVAAISWSGTSTHYADSVKGRFTISRDNAKNTFYLQMNSLKPEDTAVYYCATRRSHYGKYDYWGQGTQVTVSS,high polyreactivity
16,QVQLVESGGGLVQAGGSLRVSCAASGSIFIGYAMGWSRQAPGKERELVAAINDSGDRTYYADSVKGRFTISRDNAKNTVYLQMNSLKPEDTAVYYCAADLVSLDPEYDYWGQGTQVTVSS,low polyreactivity
17,QVQLVESGGGLVQAGGSLRVSCAASGSNFGGYAMGWYRQAPGKERELVAAISSRGIDTTYADSVKVRFTISRDNAKNTVYLQMYSLKPDDTAVYYCAEFVSDATVGPSNGLDYWGQGTQVTVSS,low polyreactivity
18,QVQLVESGGGLVQAGGSLRVSCAASGSTCDVNAMGWYRQAPGKERELVAAMSWSDDATYYAYSVKGRFTISRDNAKNTVYVQMNSLKPEDTAVYYCAADGRYGWYYAVYNGEDYWGQGTQVTVSS,high polyreactivity
19,QVQLVESGGGLVQAGGSLRVSCAASGSTFPYYTMGWYRQAPGKERELVDVMTIRGGSTYYAHSVNGRCTHSRDNAKNTVNLQMNSLKPEDTAVNYCAPTGQLQGWYDMYYWGQGTQVTVSS,low polyreactivity
20,QVQLVESGGGLVQAGGSLRVSCAASGSTFVRNAMGGYRQAPGKETELVAFISTSGTRTHYADSVKGRFTISRDNAKNTVYFQMNSLKPEDTAVYYCNRRVYGIVTRDYWGQGTQVTVSS,high polyreactivity
21,QVQLVESGGGLVQAGGSLRVSCAASGYTFVIYAMGWYRQAPGKERELVAAITTIGGRTYYADSVKGRFTISRDNAKNTVYLQMYSLKPEDTAVYYCATAAVTPVWYDYWGQGTQVTVSS,low polyreactivity

row,Sequence,polyreactivity (PSR sort gate)
1,QVQLVESGGGLVQAGGSLRVSSAASGRIFYLYVMAWYRQAPGKERELVAGITGSGGNTYYADSVKGRCTISRDNAKNTVDLQMNSLKPEDTAVYFCNDRFRARPRMGYWGQATQVTVSS,high polyreactivity
2,QVQLVESGGGLVQAGGSLSISCAASGLTFSYYAMGWYRQAPGKERELGAAIAGRTGRPYYADSVKGRFTISRDNAKNTVYLQMNSLKPEDTAVFYSAAGYTFSRYDDDYWGQGTQVTVSS,low polyreactivity
3,QVQLVESGGGLVQAGGSLSISCAASGRNFGYYTMGWYRQAPGKERELGAAITSGGRTNYADSVKGRFTISRDNAKNTVYLQMNSLKPEDTAVYYCNARRDSTRRGTWYEYWGQGTQVTVSS,high polyreactivity
4,QVQLVESGGGLVQAGGSLSLICAASGGIIRYKAMGWYRQAPGKERELVAAISSGGNTNYADSVKGRFTISRDNAKNTVNLQMNSLKPEDTAVYYSAKAAPWRVYYHKAYGYDYWGQGPQVTVSS,high polyreactivity
5,QVQLVESGGGLVQAGGSLSLICAASGRTSVVNAMGWYRKAPGKERELVAAITSGGSTHYADSVKGRFTISRDNAKNTVYLQMNSLKPEDTAVYYCTKRGHPARLGYYYWGQGTQVTVSS,low polyreactivity
6,QVQLVESGGGLVQAGGSLSLICAASGSTITYNAMGWYRQAPGKETELVAAIDWDGDTTYYADSVKGRFTISRDNAKNTVYLQMNSLKPEDTAVYYCAAEFYSLGKAIYEYWGQGTQVTVSS,high polyreactivity
7,QVQLVESGGGLVQAGGSLSLRCAASGRIFTVYAMVWYRPAPGKEMELVAAISKRDGSTSYADSVKGRFTISRDNAKNTVYLQMNSLKPEDTAVYYCNARNHVQVLFRRDYWGQGTQVTVSS,low polyreactivity
8,QVQLVESGGGLVQAGGSLSLSCAASGATFVRNAMGWYRQAPGKERELVAVISFRGGRTYYADSVKGRFTISRDNAKNTVYLQMNSLNPEDTAVYYCAKDRVASGVISSVDSWGQGTLVTVSS,low polyreactivity
9,QVQLVESGGGLVQAGGSLSLSCAASGFNFGVNTRGWDRQAPGKERELVAAITGSGSSTDYADSVKGRFTISRDNAKNPVYLQMHRLKPEDTAVYYCAASYYSNYPTYLRYYDWGQGTQVTVSS,high polyreactivity
10,QVQLVESGGGLVQAGGSLSLSCAASGIFSRYAMGWYRQAPGKERELVAAISSGGSTYYAESVKGRFTISRDNAKNTVYLQMNSLKPEDTAVYYCSVKQRDKFAGGRNDYWGQGTQVTVSS,high polyreactivity
11,QVQLVESGGGLVQAGGSLSLSCAASGIIFGLYTMGWYRQAPGKERELVAAISDSGGRTYYADSVKGRFTISRDNAKNTVYLQMNSLKPEETAVYYCAAEFWYVWEYNYWGQCTQVTVSS,high polyreactivity
12,QVQLVESGGGLVQAGGSLSLSCAASGINFWRYAMGWYRPAPGKERELVAGITSRGGSTYYADSVKGRFTISRDNAKNTVYLQMNSLKPEDTAVYYCNADWYGQLWWGVDYWGQGTQVTVSS,high polyreactivity
13,QVQLVESGGGLVQAGGSLSLSCAASGLILRSYAMGWYRQAPWKERELVAAISGSGGRTYYADSVKGRFTISRDNAKNTVYLLMNSLKPEDTAVYYCAAGWTYRQNGYWGQGTQVTVSS,high polyreactivity
14,QVQLVESGGGLVQAGGSLSLSCAASGLTFPKYAMGWYRQAPGKERELVDRISYSGASTYYADSVKGRFTISRDNAKNTVYLQMNSLKPEDTAVYYCAARIYRVYYVDFAPYYYWGQGTQVTVSS,high polyreactivity
15,QVQLVESGGGLVQAGGSLSLSCAASGLTFYNYAMGWYRQAPGTERELVAAISRSGRTYYADSVKGRFTISRDNAKNTVDLQMNSLKPEDTAVYYCAAGHGGDPGSGYWGQGTEVTVSS,high polyreactivity
16,QVQLVESGGGLVQAGGSLSLSCAASGNIFSYNAMGWYRQAPGKERELVAAITWAGSTYADSVKGRFTISRDNAKNTVFLQRNSLKPEDTAVYYCNAANDSGYDYWGQGTQVTVSS,low polyreactivity
17,QVQLVESGGGLVQAGGSLSLSCAASGRIFYVNTMGWYRQAPGKERELVATISSAASTNYADSVKGRFTISRDNAKNTVYLQMNSLKPEDTAVYYCNAAFYKEYYYWGQGTQVTVSS,low polyreactivity
18,QVQLVESGGGLVQAGGSLSLSCAASGRITCGYAMGWYRQAPGKERELVAVINFNGGRTYYADSVKGRFTISRDNAKNTVYLQMNSLKPEDTAVYYCAADSGYEYDYWGQGTQVTVSS,low polyreactivity
19,QVQLVESGGGLVQAGGSLSLSCAASGRITRFNAMGWYRQAPGKERELVAAITRGASTYYADSVKGRFTISRDNAKNSVYLQMNRLKQEDTAVYYCAAAPRYSWTSVARYDYWGQGTQVTVSS,high polyreactivity
20,QVQLVESGGGLVQAGGSLSLSCAASGRIYYYAMGWYRQAPGKERELVAAITGRGGSTYYADSVKGRFTISRDNAKNRVYLQMNSLKPEDTAVYYCARAGCPRHDWGQGTQVTVSS,high polyreactivity
